Legend:
PD-1-his antigen = molecular target: T1, PD-1-his antigen (UniProt Q15116 25-167, limits assumed); test: ELISA, PD-1-his coated at 0.25 µg/ml
T1 construct: not shown: his tag
Protocol: An ELISA plate was coated with PD-1-his antigen in a concentration of 0.25 μg/ml (100 μl per well) by incubation at 4° C. overnight.
The ELISA plate coated with the PD-1-his antigen was blocked with 1% BSA in the PBS buffer at 37° C. for 2 hours and washed with 1×PBST buffer containing 1% Tween-20 for three times, with gently patting to dryness.

PD-1-hIgGFc antigen [1] = molecular target: T2, PD-1-hIgGFc antigen (human, UniProt Q15116 25-167, limits assumed); test: competitive ELISA, PD-1-hIgGFc coated, competitor PDL2-his tag 0.5 µg/ml
T2 construct: not shown: human IgG Fc (hIgGFc)
T2 sequence (Q15116 25-167 limits assumed): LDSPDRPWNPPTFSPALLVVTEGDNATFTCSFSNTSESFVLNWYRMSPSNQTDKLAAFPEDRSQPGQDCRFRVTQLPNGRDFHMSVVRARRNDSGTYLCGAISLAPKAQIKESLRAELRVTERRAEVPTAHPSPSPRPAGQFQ
Protocol: A 96-well ELISA plate was coated with PD-1-hIgGFc antigen in a concentration of 1.0 μg/ml (100 μl per well) by incubation at 4° C. overnight.
After the 96-well ELISA plate was washed with the PBST buffer for five times and gently patted to dryness, HRP-conjugated monoclonal mouse anti-his tag as a secondary antibody in 1:750 dilution (50 μl per well) was added for incubation at 37° C. for 1 hour.

PD-1-hIgGFc antigen [2] = molecular target: T2, PD-1-hIgGFc antigen; test: competitive ELISA, PD-1-hIgGFc coated, competitor PDL1-mIgG2aFc 0.3 µg/ml
Protocol: A 96-well ELISA plate was coated with PD-1-hIgGFc antigen in a concentration of 0.5 μg/ml (50 μl per well) by incubation at 4° C. overnight.

T1 sequence (Q15116 25-167 limits assumed): as above

B1: humanized H8L2 antibody (IgG-like antibody H8L2 against PD-1) (antibody)
heavy: EVQLVQSGGGLVQPGGSLKLSCAASGFTFSSYGMSWVRQAPGKGLDWVATISGGGRDTYYPDSVKGRFTISRDNSKNNLYLQMNSLRAEDTALYYCARQKGEAWFAYWGQGTLVTVSSASTKGPSVFPLAPCSRSTSESTAALGCLVKDYFPEPVTVSWNSGALTSGVHTFPAVLQSSGLYSLSSVVTVPSSSLGTKTYTCNVDHKPSNTKVDKRVESKYGPPCPPCPAPEFLGGPSVFLFPPKPKDTLMITRTPEVTCVVVDVSQEDPEVQFNWYVDGVEVHNAKTKPREEQFNSTYRVVSVLTPLHQDWLNGKEYKCKVSNKGLPSSIEKTISKAKGQPREPQVYTLPPSQEEMTKNQVSLTCLVKGFYPSDIAVEWESNGQPENNYKTTPPVLDSDGSFFLYSRLTVDKSRWQEGNVFSCSVMHEALHAHYTQKSLSLSLGK
light: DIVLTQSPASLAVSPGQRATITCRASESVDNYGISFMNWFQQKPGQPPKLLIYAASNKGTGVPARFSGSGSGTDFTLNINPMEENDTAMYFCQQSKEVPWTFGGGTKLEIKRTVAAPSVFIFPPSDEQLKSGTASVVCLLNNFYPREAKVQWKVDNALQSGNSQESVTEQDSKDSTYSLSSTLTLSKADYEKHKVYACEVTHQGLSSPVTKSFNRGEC
notes: Expressed in 293 cells and purified on protein A; also called 18A10 H8L2
PD-1-his antigen
  EC50: 40 pM
PD-1-hIgGFc antigen [1]
  EC50: 1830 pM
PD-1-hIgGFc antigen [2]
  EC50: 474 pM
